T1: E. coli PNPase (E. coli, UniProt P05055 1-711)
T1 construct: polynucleotide phosphorylase (PNPase), E. coli; also called polynucleotide phosphorylase; full-length PNPase; source: E. coli BL21(DE3), purified (ammonium sulfate, Q, butyl-Sepharose, SEC)
T1 sequence (looked up): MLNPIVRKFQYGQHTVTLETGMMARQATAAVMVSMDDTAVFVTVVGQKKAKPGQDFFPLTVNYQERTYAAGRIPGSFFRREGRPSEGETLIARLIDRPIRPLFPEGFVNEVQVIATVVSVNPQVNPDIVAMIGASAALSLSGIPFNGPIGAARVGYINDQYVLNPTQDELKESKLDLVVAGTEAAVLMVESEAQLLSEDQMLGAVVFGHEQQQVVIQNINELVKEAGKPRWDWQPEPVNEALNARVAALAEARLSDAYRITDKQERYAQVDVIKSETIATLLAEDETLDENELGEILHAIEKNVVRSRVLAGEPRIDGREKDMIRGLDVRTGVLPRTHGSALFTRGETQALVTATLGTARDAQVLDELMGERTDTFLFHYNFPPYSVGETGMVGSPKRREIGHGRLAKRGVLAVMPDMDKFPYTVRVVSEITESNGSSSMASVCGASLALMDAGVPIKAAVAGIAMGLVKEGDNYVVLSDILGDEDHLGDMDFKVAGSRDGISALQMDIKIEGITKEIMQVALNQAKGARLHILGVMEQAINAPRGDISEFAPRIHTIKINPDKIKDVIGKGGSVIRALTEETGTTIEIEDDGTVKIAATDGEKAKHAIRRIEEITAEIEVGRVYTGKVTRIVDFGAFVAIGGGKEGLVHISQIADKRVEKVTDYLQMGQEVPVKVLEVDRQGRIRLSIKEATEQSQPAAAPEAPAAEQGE

T2: PNPase carrying a C-terminal Hisx6 tag (E. coli polynucleotide phosphorylase) (E. coli, UniProt P05055 1-711)
T2 construct: polynucleotide phosphorylase (PNPase), E. coli; Immobilised through the His tag on an NTA chip for SPR; also called PNPase C-His; PNPase with a 6xHisTag at the CTD; source: E. coli Evo21(DE3), purified (Ni-NTA, butyl-Sepharose HIC, Q, Superdex S200); not shown: His6, C-terminal, kept
T2 sequence (looked up): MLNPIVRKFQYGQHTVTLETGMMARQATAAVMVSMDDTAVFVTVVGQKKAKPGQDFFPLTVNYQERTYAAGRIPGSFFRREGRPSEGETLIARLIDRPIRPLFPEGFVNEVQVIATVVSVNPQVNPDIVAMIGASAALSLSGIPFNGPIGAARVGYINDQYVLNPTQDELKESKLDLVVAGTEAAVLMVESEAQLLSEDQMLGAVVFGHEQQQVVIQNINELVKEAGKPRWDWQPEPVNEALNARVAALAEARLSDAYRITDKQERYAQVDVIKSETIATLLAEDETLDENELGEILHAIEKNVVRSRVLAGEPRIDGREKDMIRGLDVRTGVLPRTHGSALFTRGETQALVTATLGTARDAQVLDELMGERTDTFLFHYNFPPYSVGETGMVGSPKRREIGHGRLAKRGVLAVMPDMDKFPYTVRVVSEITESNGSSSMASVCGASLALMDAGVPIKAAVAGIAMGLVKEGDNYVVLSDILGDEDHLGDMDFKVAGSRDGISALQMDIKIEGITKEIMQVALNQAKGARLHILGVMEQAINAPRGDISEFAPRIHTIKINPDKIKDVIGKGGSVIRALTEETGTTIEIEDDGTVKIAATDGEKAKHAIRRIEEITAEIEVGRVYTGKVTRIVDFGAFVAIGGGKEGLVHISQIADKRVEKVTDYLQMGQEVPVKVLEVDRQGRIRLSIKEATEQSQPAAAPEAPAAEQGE


Tests used:
[1] = molecular target: T1, E. coli PNPase; assay: SEC-MALS; Superdex 200 10/300 Increase, 100 µl at ~1 mg/ml, 25°C; buffer A (50 mM Tris pH 7.5, 100 mM NaCl, 100 mM KCl, 0.01% w/v b-DDM, 1 mM TCEP) or B (A without b-DDM) as Table S2 tells for each sample; the 1:1 ratio is one RNase E segment to one PNPase trimer (expected mass = trimer plus one segment); conditions: both partners purified
[2] = molecular target: T2, PNPase carrying a C-terminal Hisx6 tag …; assay: SPR; PNPase with C-terminal His6 tag immobilised on Series S Sensor Chip NTA (5 RU); Biacore T200, 25°C; 20 mM HEPES pH 7.2, 150 mM NaCl, 5 mM MgCl2, 0.5 mM TCEP, 0.05% Tween 20; six peptide concentrations up to 9000 nM (up to 5000 nM for RNase E 985–1061); contact 60 s, dissociation 120 s; conditions: both partners purified

| Binder | stoichiometry N [1] | Kd [2] [µM] | koff [2] [s⁻¹] | kon [2] [M⁻¹ s⁻¹] |
| --- | --- | --- | --- | --- |
| RNase E 960-1061 (in the SEC-MALLS sample with PNPase) (domain or fragment, E. coli, UniProt P21513 960-1061, looked up, The expected mass of the complex fits one untagged segment of 10,585 Da on a PNPase trimer) VVETAEVVVAEPEVVAQPAAPVVAEVAAEVETVAAVEPEVTVEHNHATAPMTRAPAPEYVPEAPRHSDWQRPTFAFEGKGAAGGHTATHHASAAPARPQPVE | 1 |  |  |  |
| RNase E 583-1061, avi-tagged (domain or fragment, E. coli, UniProt P21513 583-1061, looked up, The construct is described nowhere in the methods) SGGEETKPTEQPAPKAEAKPERQQDRRKPRQNNRRDRNERRDTRSERTEGSDNREENRRNRRQAQQQTAETRESRQQAEVTEKARTADEQQAPRRERSRRRNDDKRQAQQEAKALNVEEQSVQETEQEERVRPVQPRRKQRQLNQKVRYEQSVAEEAVVAPVVEETVAAEPIVQEAPAPRTELVKVPLPVVAQTAPEQQEENNADNRDNGGMPRRSRRSPRHLRVSGQRRRRYRDERYPTQSPMPLTVACASPELASGKVWIRYPIVRPQDVQVEEQREQEEVHVQPMVTEVPVAAAIEPVVSAPVVEEVAGVVEAPVQVAEPQPEVVETTHPEVIAAAVTEQPQVITESDVAVAQEVAEQAEPVVEPQEETADIEEVVETAEVVVAEPEVVAQPAAPVVAEVAAEVETVAAVEPEVTVEHNHATAPMTRAPAPEYVPEAPRHSDWQRPTFAFEGKGAAGGHTATHHASAAPARPQPVE | 1 |  |  |  |
| GAAGGHTATHHASAAPARPQPVE (peptide, UniProt P21513 1039-1061, looked up, source: E. coli Evo21(DE3), pMxe vector, purified (Ni-NTA, amylose, TEV, Q, Superdex 75); not shown: His6, N-terminal, cleaved; MBP, N-terminal, cleaved; intein, C-terminal, cleaved) [RNase E 1039-1061] |  | 5.92 | 0.833 | 140000 |
| RNase E 985-1061 (domain or fragment, E. coli, UniProt P21513 985-1061, looked up, source: E. coli Evo21(DE3), pMxe vector, purified (Ni-NTA, amylose, TEV, Q, Superdex 75); not shown: His6, N-terminal, cleaved; MBP, N-terminal, cleaved; intein, C-terminal, cleaved) VAAEVETVAAVEPEVTVEHNHATAPMTRAPAPEYVPEAPRHSDWQRPTFAFEGKGAAGGHTATHHASAAPARPQPVE |  | 0.00402 | 0.0158 | 3.93e+06 |

Source: paper PMC12489471, “A multi-dentate, cooperative interaction between endo- and exo-ribonucleases within the bacterial RNA degradosome” (Nucleic Acids Research, 2025)
